According to paper PMC8858909 (Advances in biological regulation, 2021):

B1: GST-SNX1 residues 1-60 (domain or fragment, human, UniProt Q13596 1-60, looked up)
chain: MASGGGGCSASERLPPPFPGLEPESEGAAGGSEPEAGDSDTEGEDIFTGAAVVSKHQSPK
B2: GST-SNX1 (residues 1-90) (domain or fragment, human, UniProt Q13596 1-90, looked up)
chain: MASGGGGCSASERLPPPFPGLEPESEGAAGGSEPEAGDSDTEGEDIFTGAAVVSKHQSPKITTSLLPINNGSKENGIHEEQDQEPQDLFA
B3: GST-SNX1 (residues 40-90) (domain or fragment, human, UniProt Q13596 40-90, looked up)
chain: DTEGEDIFTGAAVVSKHQSPKITTSLLPINNGSKENGIHEEQDQEPQDLFA
B4: GST-SNX1 (residues 1-142) (domain or fragment, human, UniProt Q13596 1-142, looked up)
chain: MASGGGGCSASERLPPPFPGLEPESEGAAGGSEPEAGDSDTEGEDIFTGAAVVSKHQSPKITTSLLPINNGSKENGIHEEQDQEPQDLFADATVELSLDSTQNNQKKVLAKTLISLPPQEATNSSKPQPTYEELEEEEQEDQ
B5: GST-SNX2_N-terminal (1-139) (domain or fragment, human, UniProt O60749 1-139, looked up)
chain: MAAEREPPPLGDGKPTDFEDLEDGEDLFTSTVSTLESSPSSPEPASLPAEDISANSNGPKPTEVVLDDDREDLFAEATEEVSLDSPEREPILSSEPSPAVTPVTPTTLIAPRIESKSMSAPVIFDRSREEIEEEANGDI
B6: GST-SNX1 residues 1-70 (domain or fragment, human, UniProt Q13596 1-70, looked up)
chain: MASGGGGCSASERLPPPFPGLEPESEGAAGGSEPEAGDSDTEGEDIFTGAAVVSKHQSPKITTSLLPINN
B7: GST-SNX1 residues 1-80 (domain or fragment, human, UniProt Q13596 1-80, looked up)
chain: MASGGGGCSASERLPPPFPGLEPESEGAAGGSEPEAGDSDTEGEDIFTGAAVVSKHQSPKITTSLLPINNGSKENGIHEE
B8: GST-SNX1 (residues 40-100) (domain or fragment, human, UniProt Q13596 40-100, looked up)
chain: DTEGEDIFTGAAVVSKHQSPKITTSLLPINNGSKENGIHEEQDQEPQDLFADATVELSLDS

Experiments:
[1] = target: 6xHis-tagged full-length SNX27 (human, UniProt Q96L92 1-541); assay: pull-down
[2] = target: untagged full-length SNX27 (human, UniProt Q96L92 1-541); assay: ITC
[3] = target: untagged SNX27 FERM domain (human, UniProt Q96L92 273-525); assay: ITC

Row | Binder | binding result [1] | also measured
1 | B1 | binds | 
2 | B2 | binds | 
3 | B3 | binds | 
4 | B4 |  | Kd [2]: 10 to 12 µM; Kd [3]: 12 µM
5 | B5 | binds | 
6 | DTEGEDIFTGAAVVSKHQSPKITTSLLPINN (domain or fragment, human, UniProt Q13596 40-70, looked up) [GST-SNX1 residues 40-70] | binds | 
7 | B6 | binds | 
8 | EQDQEPQDLFA [SNX1 peptide with the second DxF motif (residues 80-90, DLF)] |  | binding result [2]: binds; binding result [3]: binds
9 | DTEGEDIFTGAAVVSKHQSPK (domain or fragment, human, UniProt Q13596 40-60, looked up) [GST-SNX1 residues 40-60] | binds | 
10 | B7 | binds | 
11 | DTEGEDIFTGA [SNX1 peptide with the first DxF motif (residues 40-50, DIF)] |  | fold weaker than the SNX1 N-terminus [2]: ~2 fold; fold weaker than the SNX1 N-terminus [3]: ~2 fold
12 | B8 | binds | 
13 | DTEGEDIFTGAAVVSKHQSPKITTSLLPINNGSKENGIHEE (domain or fragment, human, UniProt Q13596 40-80, looked up) [GST-SNX1 residues 40-80] | binds | 
